Experimental data from the RNAGym collection of RNA variant scans (doi:10.1073/pnas.2313332121).
Variants at the floor of the assay were thinned out.

B1: TPR 5TU (parent)
chain: GGAUCUUCUCGAUCUAACAAAAAAGACAAAUCUGCCACAAAGCUUGAGAGCAUCUUCGGAUGCAGAGGCGGCAGCCUUCGGUGGCGCGAUAGCGCCAACGUUCUCAACUAUGACACGCAAAACGCGUGCUCCGUUGAAUGGAGUUUAUCAUG

Variants of: B1
Assay: polymerase ribozyme fitness, log enrichment relative to wild type (log ratio); higher = more active; in vitro selection for triplet polymerase activity
Procedure, shortened: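 In triplicate, a single round of in vitro selection was run on each mutant library, PCR-built and transcribed, covering one subunit of a heterodimeric triplet polymerase ribozyme. Frozen incubation at −7 °C followed annealing with a biotinylated primer, partner subunit and triplets, and extended constructs were then gel-excised, streptavidin-captured and taken through RT-PCR. Fitness is the logarithm of genotype enrichment over wild-type enrichment, from inverse-variance-weighted replicate averages of Illumina-sequenced inputs and outputs. […] only genotypes with ≥10 input reads and ≥1 read per output were kept.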

Variant | polymerase ribozyme fitness (log ratio)
GGAUCUUCUCGAUCUAACAAAAAAGACAAAUCUGCCACAAAGCUUGAGAGCAUCUUCGGAUGCAGAGGCGGCAGCAUUCGGUGGCGCGAUAGCGUAGACGUUCUCAACUAUGAUACGCAAAACGCGUGCUCCGUUGCAUGGAGUUUAUCAUG [C76A C95U C96A A97G C114U A137C] | ≤ -4.2
GGAUCUUCUCGAUCUAACAAAAAAGACAAAUCUGCCACAAAGCUUGAGAGCAUCUUCGGAUGCAGAGGCGGCAGCAUUCGGUGGUGCGAUAGCGCCAACGUUCUCAACUAUGACACGCAAAACGCGUGCUCCGUUGAAUGGAGCUUAUCAUG [C76A C85U U144C] | -0.235
GGAUCUUCUCGAUCUAACAAAAAAGACAAAUCUGCCACAAAGCUUGAGAGCAUCUUCGGAUGCAGAGGCGGCAGUCUUCGGUGGCGCGAUAGCGCCAACGUUCUCAACUAUGACACGCAAAACGCGUGCUCCUUUGAAUGGAGUUUAUCAUG [C75U G133U] | -3.54
GGAUCUUCUCGAUCUAACAAAAAAGACAAAUCUGCCACAAAGCUUGAGAGCAUCUUCGGAUGCAGAGGCGGCAGUCUUCGGUAGCGCGAUAGCGCCAACGUUCUCAACUAUGACACGCAAAACGCGUGCUCCGUUGAAUGGAGUUUAUCAUG [C75U G83A] | -0.0803
GGAUCUUCUCGAUCUAACAAAAAAGACAAAUCUGCCACAAAGCUUGAGAGCAUCUUCGGAUGCAGAGGCGGCAGUCUUCGGUUGCGCGAUAGCGCCAACGUUCUCAACUAUGACACGCAAAACGCGUGCUCCGUUGAAUGGAGUUUAUCAUG [C75U G83U] | -3.08
GGAUCUUCUCGAUCUAACAAAAAAGACAAAUCUGCCACAAAGCUUGAGAGCAUCUUCGGAUGCAGAGGCGGCAGCAUUCGGUGGCGCGAUAGCGCCAACGUUCUCAACUAUGACACGCUAAACGCGUGCUCCGUUGAAUGGAGUUUAUCAUG [C76A A119U] | -0.979
GGAUCUUCUCGAUCUAACAAAAAAGACAAAUCUGCCACAAAGCUUGAGAGCAUCUUCGGAUGCAGAGGCGGCAGUCUUCGGUGGCGCGAUAGCGCCAACGUUCUCAACUCUGACACGCAAAACGCGUGCUCCGUUGAAUGGAGUUGAUCAUG [C75U A110C U146G] | ≤ -4.2
GGAUCUUCUCGAUCUAACAAAAAAGACAAAUCUGCCACAAAGCUUGAGAGCAUCUUCGGAUGCAGAGGCGGCAGUCUUCAGUGGAGCGAUAGCGCCAACGUUCUCAACUAUGACACGCAAAACGCGUGCUCCGUUGAAUGGAGUUCAUCAUG [C75U G80A C85A U146C] | -3.11
GGAUCUUCUCGAUCUAACAAAAAAGACAAAUCUGCCACAAAGCUUGAGAGCAUCUUCGGAUGCAGAGGCGGCAGCAUUCGGUGGCGCGAUAGCGCCUACGUUCUCAACUAUGACACGCAAAACGCGUGCUCCGUUGAAUGGAGUUUAUCAUG [C76A A97U] | -1.06
GGAUCUUCUCGAUCUAACAAAAAAGACAAAUCUGCCACAAAGCUUGAGAGCAUCUUCGGAUGCAGAGGCGGCAGCAUUCGGUGGCGCGAUAGCGCCAACGUUCUCAACUAUGACACGCAAAACGCGUGCUCCGUUGUAUGGAGUUUAUCAUG [C76A A137U] | -3.9
GGAUCUUCUCGAUCUAACAAAAAAGACAAAUCUGCCACAAAGCUUGAGAGCAUCUUCGGAUGCAGAGGCGGCAGCAUUCGGUGGCGCGAUAGCGCUAACGUUCUCAACUAUGACACGCAAAACGCGUGCUCCGUUGAAUGGAGUUUAUCAUG [C76A C96U] | -0.773
GGAUCUUCUCGAUCUAACAAAAAAGACAAAUCUGCCACAAAGCUUGAGAGCAUCUUCGGAUGCAGAGGCGGCAGUCUUCGGUGGCGCGAUAGCGCCAACGUUCUCAACUAUGACACGCAAAACGCGUGCUCCGUUGAAUGAAGUUUAUCAUG [C75U G141A] | -0.767
GGAUCUUCUCGAUCUAACAAAAAAGACAAAUCUGCCACAAAGCUUGAGAGCAUCUUCGGAUGCAGAGGCGGCAGUCUUCGGUGGCGCGAUAGCGCCAACGUUCUCAACUAUGUCACGCAAAACUCGUGCUCCGUUGAAUGGAGCUUAUCAUG [C75U A113U G124U U144C] | ≤ -4.2
GGAUCUUCUCGAUCUAACAAAAAAGACAAAUCUGCCACAAAGCUUGAGAGCAUCUUCGGAUGCAGAGGCGGCAGUCUUCGGUGGCGCGAUAGCGUCAACGUUCUCAACUAUGACACGCAAAACGCGUGCUCCGUUGAAUGGAGUUUAUCAUG [C75U C95U] | 0.131
GGAUCUUCUCGAUCUAACAAAAAAGACAAAUCUGCCACAAAGCUUGAGAGCAUCUUCGGAUGCAGAGGCGGCAGCAUUCGGUGGCGCGAUGGCGCCAACGUUCUCAACUAUGACACGCAGAACGCGUGCUCCGUUGAAUGGAGUUUAUCAUG [C76A A91G A120G] | -3.67
GGAUCUUCUCGAUCUAACAAAAAAGACAAAUCUGCCACAAAGCUUGAGAGCAUCUUCGGAUGCAGAGGCGGCAGUCUUCGGUGGCGCGAUAGCGCCAACGUUCUCAACUAUGCCACGCAAAACGCGUGCUCCGUUGAAUGGAGUUUAUCAUG [C75U A113C] | -3.87
GGAUCUUCUCGAUCUAACAAAAAAGACAAAUCUGCCACAAAGCUUGAGAGCAUCUUCGGAUGCAGAGGCGGCAGCAUUCGGUGGAGCGAUAGCGACAACGUUCUCAACUAUGACACGCAGAACGCGUGCUCCGUUGAAUGGAGUUUAUCAUG [C76A C85A C95A A120G] | -2.33
GGAUCUUCUCGAUCUAACAAAAAAGACAAAUCUGCCACAAAGCUUGAGAGCAUCUUCGGAUGCAGAGGCGGCAGCAUUCGGUGGCGGGAUAGCGCCAACGUUCUCAACUAUGACACGCAAAACGCGUGCUCCGUUGAAUGGAGUUUAUCAUG [C76A C87G] | -4.07
GGAUCUUCUCGAUCUAACAAAAAAGACAAAUCUGCCACAAAGCUUGAGAGCAUCUUCGGAUGCAGAGGCGGCAGCAUUCGGUGGCGCGAUAGCGCAAACGUUCUCAACUAUGACACGCAAACAGCGUGCUCCGUUGAAUGGAGUUUAUCAUG [C76A C96A A122C C123A] | -1.55

Variant | polymerase ribozyme fitness (log ratio)
GGAUCUUCUCGAUCUAACAAAAAAGACAAAUCUGCCACAAAGCUUGAGAGCAUCUUCGGAUGCAGAGGCGGCAGUCUUCGGUGGGGCGAUAGCGCCAACGUUAUCAUCUAUGACACGCAAAACGCGUGCUCCGUUGAAUGGAGUUGUUCGUG [C75U C85G C103A A107U U146G A147U A150G] | ≤ -4.2
GGAUCUUCUCGAUCUAACAAAAAAGACAAAUCUGCCACAAAGCUUGAGAGCAUCUUCGGAUGCAGAGGCGGCAGUCUUCGGUGGCGCGAUAGCGCCAACGUUCUCAACUAUGACACGCAAAACGCGUGCUCCGUUGAAUGGAGUUUAUCAUG [C75U] | -0.0565
GGAUCUUCUCGAUCUAACAAAAAAGACAAAUCUGCCACAAAGCUUGAGAGCAUCUUCGGAUGCAGAGGCGGCAGUCUUCGGUGGCGCGAUAGCGCCGACGUUCUCAACUAUGACACGCAAAACGCGUGCUUCGUGGAAUGGAGUUUAUCAUG [C75U A97G C131U U135G] | -3.18
GGAUCUUCUCGAUCUAACAAAAAAGACAAAUCUGCCACAAAGCUUGAGAGCAUCUUCGGAUGCAGAGGCGGCAGUCUUCGGUAGCGCGAUAGCGCCACCGUUCUCAACUAUGACACGCAAAACGCGUGCUCCGAAGAAUGGAGUUUAUCAUG [C75U G83A A98C U134A U135A] | -3.58
GGAUCUUCUCGAUCUAACAAAAAAGACAAAUCUGCCACAAAGCUUGAGAGCAUCUUCGGAUGCAGAGGCGGCAGCAUUCGGUGGCGUGAUAGCGCCAACGUUCUCAACUAUGACACGCAAAACGCGUGCUCCGUUGAAUCGAGUUUAUCAUG [C76A C87U G140C] | ≤ -4.2
GGAUCUUCUCGAUCUAACAAAAAAGACAAAUCUGCCACAAAGCUUGAGAGCAUCUUCGGAUGCAGAGGCGGCAGUCUUCGGUGACGCGAUAGCGCCAACGUUCUCAACUAUGACACGCAAAACGCGUGCUCCGUAGAAUGGAGUUUAUCAUG [C75U G84A U135A] | -0.996
GGAUCUUCUCGAUCUAACAAAAAAGACAAAUCUGCCACAAAGCUUGAGAGCAUCUUCGGAUGCAGAGGCGGCAGUCUUCGGUGGUGCGAUAGCGCCAACGUUCUCAACUAUGACACGCAAAACGCGUGCUCCGUGGAAUGGAGUUAAUCAUG [C75U C85U U135G U146A] | -3.82
GGAUCUUCUCGAUCUAACAAAAAAGACAAAUCUGCCACAAAGCUUGAGAGCAUCUUCGGAUGCAGAGGCGGCAGUCUUCGGUGGCGUGAUAGCGCCAACGUUCUCAACUAUGACACGCAAAACGCGUGCUCCGUUGAAUGGAGUUUAUCAUG [C75U C87U] | 0.0996
GGAUCUUCUCGAUCUAACAAAAAAGACAAAUCUGCCACAAAGCUUGAGAGCAUCUUCGGAUGCAGAGGCGGCAGCAUUCGGUGGCGCGAUAGCGCCAACGUUCUCAACUAUGCCACGCAAAACGCGUGCUCCGUUGAAUGCAGUUUAUCAAG [C76A A113C G141C U151A] | ≤ -4.2
GGAUCUUCUCGAUCUAACAAAAAAGACAAAUCUGCCACAAAGCUUGAGAGCAUCUUCGGAUGCAGAGGCGGCAGUCUUCGGUGGCGCGGUAGCGCCAACGUUCUCAACUAUGACACGCAAAACGCGUGCUCCGUUGAAUGGAGUUUAUCAUG [C75U A89G] | -0.933
GGAUCUUCUCGAUCUAACAAAAAAGACAAAUCUGCCACAAAGCUUGAGAGCAUCUUCGGAUGCAGAGGCGGCAGCAUUCGGUGGCGCGAUGGCGCCAACGUUCUCAACUAUGAUACGCAAAACGCGUGCUCCGUUGAAUGGAGUUUAUCAUG [C76A A91G C114U] | -3.98
GGAUCUUCUCGAUCUAACAAAAAAGACAAAUCUGCCACAAAGCUUGAGAGCAUCUUCGGAUGCAGAGGCGGCAGCAUUCGGUGGCGUGAUAGCGCCAACGUUCUCAACUAUGACACGCAAAACGCGUGCUCCGUUGAAGGGAGAUUAUCAUG [C76A C87U U139G U144A] | -2.07
GGAUCUUCUCGAUCUAACAAAAAAGACAAAUCUGCCACAAAGCUUGAGAGCAUCUUCGGAUGCAGAGGCGGCAGCAUUCGGUGGCGCGAUAGCGCCAACGUUCUCAACUAUGACACGCAAAACGCGUGCUCCGUUGAAUGGCGUUUAUCAUG [C76A A142C] | -2.3
GGAUCUUCUCGAUCUAACAAAAAAGACAAAUCUGCCACAAAGCUUGAGAGCAUCUUCGGAUGCAGAGGCGGCAGUCUUCGGUCGCGCGAUAGCGCCAACGUUCUCAACUAUGACACGCAAAACGCGUGCUCCGUUGAUUGGGGUUUAUCAUG [C75U G83C A138U A142G] | ≤ -4.2
GGAUCUUCUCGAUCUAACAAAAAAGACAAAUCUGCCACAAAGCUUGAGAGCAUCUUCGGAUGCAGAGGCGGCAGUCUUCGGUGGCGCGAUAGCACCAACGUUCUCAACUAUGACACGCAAAACGCGUGCUCCGUUGAAUGGCGUUUAUCAUG [C75U G94A A142C] | -2.13
GGAUCUUCUCGAUCUAACAAAAAAGACAAAUCUGCCACAAAGCUUGAGAGCAUCUUCGGAUGCAGAGGCGGCAGUCUUGGGUGGCGCGAUAGCGCCAACGUUCUCAACUAUGACACGCAAAACGCGUGCUCCGUUGAAUGGAGUUUAUCAUG [C75U C79G] | -4.07
GGAUCUUCUCGAUCUAACAAAAAAGACAAAUCUGCCACAAAGCUUGAGAGCAUCUUCGGAUGCAGAGGCGGCAGUCUUCGGUGGCGCGAUAGCCCCAACGUUCUCAACUAUGACACGCAAAACGCGUGCUCCGUUGAAUGGAGUUUAUCAUG [C75U G94C] | 0.488
GGAUCUUCUCGAUCUAACAAAAAAGACAAAUCUGCCACAAAGCUUGAGAGCAUCUUCGGAUGCAGAGGCGGCAGUCUUCGGUGGCGCGAUAGCGCUAACGUUCUCAACUAUGACACGCAAAACGCGUGCUCCGUUGAAUGGAGUUUAUCAUG [C75U C96U] | -0.743
GGAUCUUCUCGAUCUAACAAAAAAGACAAAUCUGCCACAAAGCUUGAGAGCAUCUUCGGAUGCAGAGGCGGCAGUCUUCGGUGGCGCGAUAACGCCAACGUUCUCAACUAUGACACGCAAAACGCGUGCUCCGUUGAAUGGAGUUUAUCAUG [C75U G92A] | -2.99
